Experimental data from PMC7820495.

Biological target: GST-SVIP (Drosophila SVIP, CG32039) (Drosophila) (UniProt Q8IQC6)
Experiment: pull-down; in vitro binding titration assay of GST-SVIP with MBP-VCP wild type and disease-relevant mutants; binding curves and affinities in Fig. 7b-e

Sequence of GST-SVIP (Drosophila SVIP, CG32039) (Drosophila) (Q8IQC6 entry or part of it): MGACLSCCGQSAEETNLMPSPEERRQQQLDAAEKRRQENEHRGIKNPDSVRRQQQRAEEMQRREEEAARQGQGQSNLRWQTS

fold reduction of SVIP–VCP affinity against wild type: > 30 fold
Substance: MBP-VCP^P134L (Drosophila VCP) (from UniProt Q7KN62 1-801) (domain or fragment)
